Patent US20120094377A1 (EVROGEN JSC, published 2012)

Legend:
[1] = target: the molecule itself; test: FPLC gel filtration of purified protein (homodimerization)
[2] = target: the molecule itself; test: FPLC gel filtration, Superdex 200 (self-association)
Protocol: Gel filtration chromatography was performed using a Superdex 200 10/300 GL column (Amersham Biosciences), equilibrated with 40 mm Tris-HCl (pH 7.5), 150 mm NaCl buffer at a flow rate of 0.4 ml/min. Apparent molecular masses were calculated by interpolating an elution volume versus log (molecular mass) calibration curve using ferritin (440 kDa), catalase (232 kDa), aldolase (158 kDa), BSA (67 kDa), ovalbumin (43 kDa), chymotrypsinogen A (25 kDa), and ribonuclease A (13.7 kDa). 200 uL of each fluorescent protein at concentration 1 mg/ml were loaded.

Protein | binding result [1] | binding result [2]
mKate2 protein (other, Engineered far-red fluorescent protein derived from Entacmaea quadricolor eqFP578; The partner is a second copy of the same protein (self-association / dimerization seen by FPLC)) MVSELIKENMHMKLYMEGTVNNHHFKCTSEGEGKPYEGTQTMRIKAVEGGPLPFAFDILATSFMYGSKTFINHTQGIPDFFKQSFPEGFTWERVTTYEDGGVLTATQDTSLQDGCLIYNVKIRGVNFPSNGPVMQKKTLGWEASTETLYPADGGLEGRADMALKLVGGGHLICNLKTTYRSKKPAKNLKMPGVYYVDRRLERIKEADKETYVEQHEVAVARYCDLPSKLGHR | binds | 
mKate2.7C (other, A vector His tag from pQE30 is probably present but not described; It was tested for self-association by FPLC) MVSELIKENMPMKLYMEGTVNNHHFKCTSEGEGKPYEGTQTMRIKVVEGGPLPFAFDILATSFMYGSRTFIKHPPGIPDFFKQSFPEGFTWERVTTYEDGGVLTATQDTSLQDGCLIYNVKVRGVNFPANGPVMQKKTLGWEASTETMYPADGGLEGACDMALKLVGGGHLICNLETTYRSKKPATNLKMPGVYNVDHRLERIKEADDETYVEQHEVAVARYSTGGAGDGGK |  | no binding (tested: >1 mg/ml)
mKate2.5 (other, A vector His tag from pQE30 is probably present but not described; It was tested for self-association by FPLC) MVSELIKENMHMKLYMEGTVNNHHFKCTSEGEGKPYEGTQTMRIKVVEGGPLPFAFDILATSFMYGSKTFINHPQGIPDFFKQSFPEGFTWERVTTYEDGGVLTATQDTSLQDGCLIYNVKIRGVNFPANGPVMQKKTLGWEASTETLYPADGGLEGACDMALKLVGGGHLICNLETTYRSKKPAKNLKMPGVYNVDRRLERIKEADNETYVEQHEVAVARYSTGGAGDGGK |  | no binding (tested: >1 mg/ml)
